Data as given in article PMC9750192 (The Journal of Cell Biology, 2022).

Target: VASH2 (Cys158Ala), the VASH2 chain of the cryo-EM sample (human, UniProt Q86V25 1-355, Cys158 to alanine)
Experiment: cryo-EM structure

Sequence of VASH2 (Cys158Ala), the VASH2 chain of the cryo-EM sample (Q86V25 whole entry C158A): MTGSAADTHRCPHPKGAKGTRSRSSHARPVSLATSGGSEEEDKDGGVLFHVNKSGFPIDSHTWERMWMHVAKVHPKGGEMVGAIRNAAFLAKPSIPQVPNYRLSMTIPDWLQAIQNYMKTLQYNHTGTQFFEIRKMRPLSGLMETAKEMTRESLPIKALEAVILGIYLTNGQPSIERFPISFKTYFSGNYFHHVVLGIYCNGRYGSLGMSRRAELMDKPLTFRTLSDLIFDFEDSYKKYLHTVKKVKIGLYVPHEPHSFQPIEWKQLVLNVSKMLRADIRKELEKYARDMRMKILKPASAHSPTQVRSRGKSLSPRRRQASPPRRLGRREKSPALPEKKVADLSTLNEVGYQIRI

binding result: binds
B1: SVBP with a 6His tag, the SVBP chain of the cryo-EM sample (natural protein, human, UniProt Q8N300 1-66, looked up)
chain: MDPPARKEKTKVKESVSRVEKAKQKSAQQELKQRQRAEIYALNRVMTELEQQQFDEFCKQMQPPGE
